Laboratory results from patent publication US20050080013A1 (Pfizer, published 2005).
Non-standard residues stand in square brackets, D forms with d. No end group written: not given here. Aib = CC(C)(N)C(=O)O

T1: lecithin:cholesterol acyltransferase (LCAT), purified from human plasma (human, UniProt P04180 25-440)
T1 sequence (looked up): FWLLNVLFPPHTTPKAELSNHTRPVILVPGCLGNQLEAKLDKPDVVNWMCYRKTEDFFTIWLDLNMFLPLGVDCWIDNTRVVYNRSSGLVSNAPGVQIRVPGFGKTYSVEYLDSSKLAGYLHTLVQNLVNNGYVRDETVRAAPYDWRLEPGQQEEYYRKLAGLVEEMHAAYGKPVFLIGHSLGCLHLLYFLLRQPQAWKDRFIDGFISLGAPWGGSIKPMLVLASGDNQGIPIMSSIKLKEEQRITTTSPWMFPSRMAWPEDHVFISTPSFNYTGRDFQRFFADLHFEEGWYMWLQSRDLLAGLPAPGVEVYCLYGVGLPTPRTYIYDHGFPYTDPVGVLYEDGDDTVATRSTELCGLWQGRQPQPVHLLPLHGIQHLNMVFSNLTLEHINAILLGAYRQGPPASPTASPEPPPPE


Target: T1, lecithin:cholesterol acyltransferase …
Assay: cell-based or functional assay

In order of falling “ACTIVITY (%) LCAT” value:
1. PVLDLFRELLNEGLEALKQKLK [peptide 8]  83%
2. PVLDLFRELGNELLEALKQKLK [peptide 9]  83%
3. PVLDEFREKLNEELEALKQKLK [peptide 75]  10%
4. PVLDKFREKLNE[Aib]LEALKQKLK [peptide 74]  10%
5. PVLDEFRELLFE[Aib]LEALKQKLK [peptide 76]  9%
6. PVLDEFREKLNK[Aib]LEALKQKLK [peptide 77]  9%
7. PVLDLFERLLNELLEALQKKLK [peptide 80]  9%
8. PVLDEFRELLNELLEALKQKLK [peptide 79]  9%
9. LDEFREKLNE[Aib]LEALKQKLK [peptide 82]  8%
10. [dP][dL][dL][dE][dL][dL][dK][dE][dL][dL][dQ][dE][dL][dL][dE][dA][dL][dK][dQ][dK][dL][dK] [peptide 87]  7%
11. PVLDEFREKLNELLEALKQKLK [peptide 84]  7%
12. PLDLFRELLNELLEALKQKLK [peptide 85]  7%
13. PVLELFERLLDELLNALQKKLK [peptide 86]  7%
14. PVLDKFRELLNE[Aib]LEALKQKLK [peptide 88]  7%
15. PVLDEFREKLNE[Aib]LWALKQKLK [peptide 89]  6%
16. DEFREKLNE[Aib]LEALKQKLK [peptide 90]  6%
17. PVLDEFRELLNE[Aib]LEALKQKLK [peptide 91]  6%
18. PVLDEFRELYNE[Aib]LEALKQKLK [peptide 92]  5%
19. PVLDEFREKLNEALEALKQKLK [peptide 94]  5%
20. PVLDEFREKLNE[Aib]LKALKQKLK [peptide 93]  5%
21. [dP][dV][dL][dD][dL][dF][dR][dE][dL][dL][dN][dE][Aib][dL][dE][dA][dL][dK][dQ][dK][dL][dK] [peptide 96]  5%
22. PVLDLFRELLNL[Aib]LEALKQKLK [peptide 95]  5%
23. PVLDLFRELLNELLE [peptide 97]  4%
24. PVLDLFRELLNW[Aib]LEALKQKLK [peptide 101]  2%
25. [dP][dV][dL][dD][dL][dF][dR][dE][dL][dL][dN][dE][dL][dL][dE][dA][dL][dK][dQ][dK][dL][dK] [peptide 100]  2%
26. PVLDLFRELLNL[Aib]LEALKEKLK [peptide 102]  2%
27. KLKQKLAELLENLLERFLDLVP [peptide 99]  2%
28. PVLDLFRELLNEELEALKQKLK [peptide 98]  2%
